Laboratory results: US6881575

T1: Cdc25C peptide (amino acid 211 to 221 of Cdc25C; LYRSPSMPENL)
T1 chain: LYRSPSMPENL

T2: TAT-S216A peptide
T2 chain: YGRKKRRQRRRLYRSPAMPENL

T3: GST-Cdc25C (amino acid 200-256)
T3 sequence (P30307 whole entry, looked up): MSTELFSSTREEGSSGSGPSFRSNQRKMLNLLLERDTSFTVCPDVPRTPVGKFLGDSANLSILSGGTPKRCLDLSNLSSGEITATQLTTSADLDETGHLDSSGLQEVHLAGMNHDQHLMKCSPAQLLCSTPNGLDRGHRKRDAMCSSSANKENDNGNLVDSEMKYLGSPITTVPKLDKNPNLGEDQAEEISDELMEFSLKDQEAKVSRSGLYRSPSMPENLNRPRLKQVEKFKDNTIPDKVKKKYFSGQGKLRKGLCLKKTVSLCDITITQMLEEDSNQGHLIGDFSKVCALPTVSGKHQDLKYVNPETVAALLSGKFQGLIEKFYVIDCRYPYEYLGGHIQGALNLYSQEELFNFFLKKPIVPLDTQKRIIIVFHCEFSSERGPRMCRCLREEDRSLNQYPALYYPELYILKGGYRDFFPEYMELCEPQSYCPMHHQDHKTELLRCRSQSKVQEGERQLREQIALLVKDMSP

B1: c-myc-tagged Chk2/HuCds1 (peptide)
chain: LYRSPSMYENL
B2: HA-tagged hChk1 (peptide)
chain: LYRSPSMFENL

Experiments:
[1] = biological target: T1, Cdc25C peptide (amino acid 211 to 221 …)
TAT-S216A peptide = biological target: T2, TAT-S216A peptide
[2] = biological target: T3, GST-Cdc25C (amino acid 200-256)

Protein | in vitro phosphorylation of the Cdc25C peptide by Chk2/HuCds1 [1] | phosphorylation of the peptide by hChk1 (TAT-S216 peptide) | phosphorylation of the peptide by hChk1 (TAT-S216A peptide) | in vitro phosphorylation of GST-Cdc25C by immunoprecipitated hChk1 (32P-ATP, SDS-PAGE autoradiogram) [2] | in vitro phosphorylation of the Cdc25C peptide by hChk1 [1]
B1 | phosphorylation of Cdc25C peptide (residues 200-256) (SEQ ID NO:1) mediated by hChk1 (SEQ ID NO:3) and Chk2/HuCds1 (SEQ ID NO:4) |  |  |  | 
B2 |  | TAT-S216 but not TAT-S216A was efficiently phosphorylated by hChk1 | TAT-S216 but not TAT-S216A was efficiently phosphorylated by hChk1 | hChk1 (SEQ ID NO:3) was capable of phosphorylating a Cdc25C protein (residues 20-256) (SEQ ID NO:1) fused to GST | phosphorylation of Cdc25C peptide (residues 200-256) (SEQ ID NO:1) mediated by hChk1 (SEQ ID NO:3) and Chk2/HuCds1 (SEQ ID NO:4)
